Assay results: patent US20210238260
Numbering of substitutions follows the chain as printed. Numbers in names are those of the source.

B1: FIXa-Y155F/T343R/R403E/E410N (protein)
chain 1: YNSGKLEEFVQGNLERECMEEKCSFEEAREVFENTERTTEFWKQYVDGDQCESNPCLNGGSCKDDINSYECWCPFGFEGKNCELDVTCNIKNGRCEQFCKNSADNKVVCSCTEGYRLAENQKSCEPAVPFPCGRVSVSQTSKLTR
chain 2: VVGGEDAKPGQFPWQVVLNGKVDAFCGGSIVNEKWIVTAAHCVETGVKITVVAGEHNIEETEHTEQKRNVIRIIPHHNYNAAINKYNHDIALLELDEPLVLNSYVTPICIADKEYTNIFLKFGSGYVSGWGRVFHKGRSALVLQYLRVPLVDRATCLRSTKFRIYNNMFCAGFHEGGRDSCQGDSGGPHVTEVEGTSFLTGIISWGEECAMKGKYGIYTKVSEYVNWIKNKTKLT
B2: FIXa-R318Y/R338E/R403E/T412A (protein)
chain 1: B1 chain 1
chain 2: B1 chain 2 with R138Y, R158E, R163T, N230E, T232A
B3: FIXa-K247N/N249S/R318Y/R338E/T343R/R403E/E410N (protein)
chain 1: B1 chain 1
chain 2: B1 chain 2 with K67N, N69S, R138Y, R158E
B4: FIXa-N260S/R318Y/R338E/T343R/R403E/E410N (protein)
chain 1: B1 chain 1
chain 2: B1 chain 2 with N80S, R138Y, R158E
B5: FIXa-R318Y/T343R/E410N (protein)
chain 1: B1 chain 1
chain 2: B1 chain 2 with R138Y, E223R
B6: FIXa-Y155F/K247N/N249S/T343R/E410N (protein)
chain 1: B1 chain 1
chain 2: B1 chain 2 with K67N, N69S, E223R
B7: FIXa-K228N/I251S/R318Y/R338E/R403E/E410N (protein)
chain 1: B1 chain 1
chain 2: B1 chain 2 with K48N, I71S, R138Y, R158E, R163T
B8: FIXa-Y155F/R318Y/T343R/E410N (protein)
chain 1: B1 chain 1
chain 2: B1 chain 2 with R138Y, E223R
B9: FIXa-R318Y/R338E/N346D/R403E/E410N (protein)
chain 1: B1 chain 1
chain 2: B1 chain 2 with R138Y, R158E, R163T, N166D
B10: FIXa-K228N/R318Y/R338E/T343R/R403E/E410N (protein)
chain 1: B1 chain 1
chain 2: B1 chain 2 with K48N, R138Y, R158E
B11: FIXa-Y155F/K228N/I251S/R318Y/R338E/R403E/E410N (protein)
chain 1: B1 chain 1
chain 2: B1 chain 2 with K48N, I71S, R138Y, R158E, R163T
B12: FIXa-K228N/K247N/N249S/R318Y/R338E/T343R/R403E/E410N (protein)
chain 1: B1 chain 1
chain 2: B1 chain 2 with K48N, K67N, N69S, R138Y, R158E
B13: FIXa-K247N/N249S/R318Y/R338E/R403E (protein)
chain 1: B1 chain 1
chain 2: B1 chain 2 with K67N, N69S, R138Y, R158E, R163T, N230E
B14: FIXa-Y155F/R338E/T343R/R403E/E410N (protein)
chain 1: B1 chain 1
chain 2: B1 chain 2 with R158E
B15: FIXa-D104N/K106S/I251S/R318Y/R338E/R403E/E410N (protein)
chain 1: B1 chain 1 with D104N, K106S
chain 2: B1 chain 2 with I71S, R138Y, R158E, R163T
B16: FIXa-Y155F/N260S/R318Y/R338E/T343R/R403E/E410N (protein)
chain 1: B1 chain 1
chain 2: B1 chain 2 with N80S, R138Y, R158E
B17: FIXa-K247N/N249S/R318Y/R338E/T343R (protein)
chain 1: B1 chain 1
chain 2: B1 chain 2 with K67N, N69S, R138Y, R158E, E223R, N230E
B18: FIXa-Y155F/K247N/N249S/R318Y/R338E/T343R (protein)
chain 1: B1 chain 1
chain 2: B1 chain 2 with K67N, N69S, R138Y, R158E, E223R, N230E
B19: FIXa-Y155F/R338E/T343R/E410N (protein)
chain 1: B1 chain 1
chain 2: B1 chain 2 with R158E, E223R
B20: FIXa Y155F/K228N/K247N/N249S (protein)
chain 1: B1 chain 1
chain 2: B1 chain 2 with K48N, K67N, N69S, R163T, E223R, N230E
B21: FIXa-Y155F/K247N/N249S/R318Y/R338E/T343R/R403E/E410N (protein)
chain 1: B1 chain 1
chain 2: B1 chain 2 with K67N, N69S, R138Y, R158E
B22: FIXa-K228N/K247N/N249S/R318Y/R338E/T343R/R403E (protein)
chain 1: B1 chain 1
chain 2: B1 chain 2 with K48N, K67N, N69S, R138Y, R158E, N230E
B23: FIXa-K228N/K247N/N249S/R318Y/R338E/T343R/E410N (protein)
chain 1: B1 chain 1
chain 2: B1 chain 2 with K48N, K67N, N69S, R138Y, R158E, E223R
B24: FIXa-Y155F/K247N/N249S/R318Y/R338E/R403E (protein)
chain 1: B1 chain 1
chain 2: B1 chain 2 with K67N, N69S, R138Y, R158E, R163T, N230E
B25: FIXa-Y155F/K247N/N249S/R403E/E410N (protein)
chain 1: B1 chain 1
chain 2: B1 chain 2 with K67N, N69S, R163T
B26: FIXa-K228N/K247N/N249S/R318Y/T343R/R403E/E410N (protein)
chain 1: B1 chain 1
chain 2: B1 chain 2 with K48N, K67N, N69S, R138Y
B27: FIXa-R318Y/R338E/T343R/E410N (protein)
chain 1: B1 chain 1
chain 2: B1 chain 2 with R138Y, R158E, E223R
B28: FIXa K228N/K247N/N249S/R318Y/R338E/R403E/E410N (protein)
chain 1: B1 chain 1
chain 2: B1 chain 2 with K48N, K67N, N69S, R138Y, R158E, R163T
B29: FIXa D104N/K106S/K228N/K247N/N249S/R318Y/R338E/R403E/E410N (protein)
chain 1: B1 chain 1 with D104N, K106S
chain 2: B1 chain 2 with K48N, K67N, N69S, R138Y, R158E, R163T
B30: FIXa-Y155F/K228N/K247N/N249S/R318Y/R338E/T343R/R403E/E410N (protein)
chain 1: B1 chain 1
chain 2: B1 chain 2 with K48N, K67N, N69S, R138Y, R158E

Key:
[1] = target: Factor X (FX), P00742
[2] = target: Factor X, P00742
[3] = target: plasma purified human AT-III (antithrombin III); assay: AT-III/UFH inhibition K0.5, ratio to Catalyst Biosciences WT FIXa
[4] = target: plasma purified human antithrombin III (AT-III), as complex with unfractionated heparin; assay: ratio of K0.5 (lower limit) to Catalyst Biosciences WT FIXa, AT-III/UFH inhibition

Chain of Factor X (FX), P00742 (P00742 whole entry, looked up): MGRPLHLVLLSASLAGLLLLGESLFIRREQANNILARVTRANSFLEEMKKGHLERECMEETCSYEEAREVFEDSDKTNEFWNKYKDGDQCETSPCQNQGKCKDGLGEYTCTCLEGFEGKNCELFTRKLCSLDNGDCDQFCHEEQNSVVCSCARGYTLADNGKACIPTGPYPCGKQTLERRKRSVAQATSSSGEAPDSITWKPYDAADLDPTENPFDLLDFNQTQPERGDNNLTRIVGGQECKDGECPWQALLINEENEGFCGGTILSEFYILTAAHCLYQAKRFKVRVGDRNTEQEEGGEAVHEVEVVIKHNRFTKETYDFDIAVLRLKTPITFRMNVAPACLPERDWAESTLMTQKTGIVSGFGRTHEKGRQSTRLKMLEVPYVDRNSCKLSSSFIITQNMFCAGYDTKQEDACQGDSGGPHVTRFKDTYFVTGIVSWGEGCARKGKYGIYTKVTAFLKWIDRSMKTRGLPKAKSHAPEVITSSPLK
Chain of Factor X, P00742 (P00742 whole entry, looked up): as above

Row | Protein | kcat (s^-1) of FX activation by FIXa variant in the Xase complex (FVIIIa, PC/PS vesicles, Ca2+), fluorogenic FXa read-out [1] [s⁻¹] | KM [2] [µM] | KM [1] [µM] | % of WT kcat/KM [2] [%] | kcat [2] [s⁻¹] | kcat/KM [2] [M⁻¹ s⁻¹] | further results
1 | B1 | 6.6 | 0.0446 | – | – | – | – | % of WT kcat/KM [1]: 321%; kcat/KM for FX activation (Xase: FVIIIa, PC/PS vesicles, Ca2+) [1]: 1.5e+08 M⁻¹ s⁻¹
2 | B2 | – | – | – | – | – | – | K0.5-mut/K0.5-wt [3]: > 517; K0.5-mut/K0.5-wt [4]: 517
3 | B3 | – | – | 0.0292 | 824 | 10.6 | 3.8e+08 | catalytic activity (kcat/KM) for activation of FX [1]: improved activity when combined with other mutations
4 | B4 | – | – | 0.0321 | 638 | 8.9 | 2.9e+08 | –
5 | B5 | 3.2 | 0.0523 | – | – | – | – | –
6 | B6 | 7.9 | 0.0344 | – | – | – | – | % of WT kcat/KM [1]: 599%; kcat/KM for FX activation (Xase: FVIIIa, PC/PS vesicles, Ca2+) [1]: 2.8e+08 M⁻¹ s⁻¹
7 | B7 | – | – | 0.0364 | 463 | 7.5 | 2.1e+08 | –
8 | B8 | 5 | 0.0403 | – | – | – | – | % of WT kcat/KM [1]: 326%; kcat/KM for FX activation (Xase: FVIIIa, PC/PS vesicles, Ca2+) [1]: 1.5e+08 M⁻¹ s⁻¹
9 | B9 | – | – | 0.0777 | – | – | – | kcat of FX activation by FIXa (Xase complex with FVIIIa, PC/PS vesicles, Ca2+) [1]: 2.5 s⁻¹; K0.5-mut/K0.5-wt [3]: > 517; K0.5-mut/K0.5-wt [4]: 517
10 | B10 | 10.5 | 0.0403 | – | – | – | – | –
11 | B11 | – | – | 0.0393 | 296 | 5.3 | 1.4e+08 | –
12 | B12 | – | – | 0.0251 | 880 | 9.9 | 4.1e+08 | –
13 | B13 | – | – | – | 496 | – | 2.3e+08 | kcat of FX activation by FIXa (Xase complex with FVIIIa, PC/PS vesicles, Ca2+) [1]: 10.5 s⁻¹
14 | B14 | – | – | 0.0259 | 524 | 5.7 | 2.4e+08 | –
15 | B15 | – | – | – | – | – | – | % of WT kcat/KM [1]: 263%; kcat [1]: 5.5 s⁻¹; kcat/KM [1]: 1.2e+08 M⁻¹ s⁻¹; K0.5-mut/K0.5-wt [3]: > 517; K0.5-mut/K0.5-wt [4]: 517
16 | B16 | – | – | 0.0402 | 335 | 5.8 | 1.5e+08 | –
17 | B17 | 8 | 0.0244 | – | – | – | – | % of WT kcat/KM [1]: 840%; kcat/KM for FX activation (Xase: FVIIIa, PC/PS vesicles, Ca2+) [1]: 3.9e+08 M⁻¹ s⁻¹
18 | B18 | 8.5 | 0.0276 | – | – | – | – | % of WT kcat/KM [1]: 772%; kcat/KM for FX activation (Xase: FVIIIa, PC/PS vesicles, Ca2+) [1]: 3.6e+08 M⁻¹ s⁻¹
19 | B19 | 6 | 0.0224 | – | – | – | – | % of WT kcat/KM [1]: 761%; kcat/KM for FX activation (Xase: FVIIIa, PC/PS vesicles, Ca2+) [1]: 3.5e+08 M⁻¹ s⁻¹
20 | B20 | – | – | – | 115 | – | 5.3e+07 | KM (FX activation by FIXa in the Xase complex with FVIIIa, PC/PS vesicles and Ca2+) [1]: 0.0792 µM
21 | B21 | – | – | 0.0257 | 864 | 9.7 | 4e+08 | –
22 | B22 | 10.9 | 0.0444 | – | – | – | – | –
23 | B23 | 4.7 | 0.0381 | – | – | – | – | –
24 | B24 | – | – | – | 206 | – | 9.5e+07 | kcat of FX activation by FIXa (Xase complex with FVIIIa, PC/PS vesicles, Ca2+) [1]: 5.7 s⁻¹
25 | B25 | 2.7 | 0.131 | – | – | – | – | % of WT kcat/KM [1]: 53%; kcat/KM for FX activation (Xase: FVIIIa, PC/PS vesicles, Ca2+) [1]: 2.4e+07 M⁻¹ s⁻¹
26 | B26 | 8.1 | 0.125 | – | – | – | – | –
27 | B27 | – | – | – | 728 | 4.9 | 3.4e+08 | catalytic activity (kcat/KM) for activation of FX [1]: displayed some of the greatest increases in catalytic activity
28 | B28 | – | – | – | 352 | – | 1.6e+08 | KM (FX activation by FIXa in the Xase complex with FVIIIa, PC/PS vesicles and Ca2+) [1]: 0.0497 µM
29 | B29 | – | – | – | 239 | – | 1.1e+08 | KM (FX activation by FIXa in the Xase complex with FVIIIa, PC/PS vesicles and Ca2+) [1]: 0.0533 µM
30 | B30 | – | – | 0.0368 | 646 | 9.4 | 3e+08 | –
